Assay [1] addresses wild-type 185bp nucleosome (nucleosome with symmetric flanking DNA, human histones) (human).
In assay [2] the target is wild-type unmodified 147bp nucleosome (nucleosome core particle, human histones) (human).

B1: KDM5A^CAT (KDM5A 1–801, minimal catalytically active construct) (domain or fragment)
chain: MAGVGPGGYAAEFVPPPECPVFEPSWEEFTDPLSFIGRIRPLAEKTGICKIRPPKDWQPPFACEVKSFRFTPRVQRLNELEAMTRVRLDFLDQLAKFWELQGSTLKIPVVERKILDLYALSKIVASKGGFEMVTKEKKWSKVGSRLGYLPGKGTGSLLKSHYERILYPYELFQSGVSLMGVQMPNLDLKEKVEPEVLSTDTQTSPEPGTRMNILPKRTRRVKTQSESGDVSRNTELKKLQIFGAGPKVVGLAMGTKDKEDEVTRRRKVTNRSDAFNMQMRQRKGTLSVNFVDLYVCMFCGRGNNEDKLLLCDGCDDSYHTFCLIPPLPDVPKGDWRCPKCVAEECSKPREAFGFEQAVREYTLQSFGEMADNFKSDYFNMPVHMVPTELVEKEFWRLVSSIEEDVIVEYGADISSKDFGSGFPVKDGRRKILPEEEEYALSGWNLNNMPVLEQSVLAHINVDISGMKVPWLYVGMCFSSFCWHIEDHWSYSINYLHWGEPKTWYGVPSHAAEQLEEVMRELAPELFESQPDLLHQLVTIMNPNVLMEHGVPVYRTNQCAGEFVVTFPRAYHSGFNQGYNFAEAVNFCTADWLPIGRQCVNHYRRLRRHCVFSHEELIFKMAADPECLDVGLAAMVCKELTLMTEEETRLRESVVQMGVLMSEEEVFELVPDDERQCSACRTTCFLSALTCSCNPERLVCLYHPTDLCPCPMQKKCLRYRYPLEDLPSLLYGVKVRAQSYDTWVSRVTEALSANFNHKKDLIELRVMLEDAEDRKYPENDLFRKLRDAVKEAETCASVAQLL
In the case of B1, the dissociation constant Kd (commonly a measure of binding affinity in units of concentration) in assay [1] amounted to 3 µM; in assay [2], 4 µM.

(Values after publication doi:10.1101/2025.05.01.651538 (2025).)
